Reference: publication PMC6100724, “Proteome‐wide analysis of phospho‐regulated PDZ domain interactions” (Molecular Systems Biology, 2018)
Values belong to the binder of their own block, whether it stands above or below them. Square brackets hold non-standard residues; d marks the D form. Ends that are not written are not given here. * marks the point of attachment. FITC = O=C1OC2(c3ccc(O)cc3Oc3cc(O)ccc32)c2ccc(NC(=S)*)cc21; pS = N[C@@H](COP(=O)(O)O)C(=O)O

Legend:
Conditions in all cases: both partners purified
[1] = target: T1, Scribble PDZ1 (human, aa 719-829) (human, UniProt Q14160 719-829); experiment: MST; FITC-labelled peptide fixed at 25-50 nM, PDZ domain titrated (1:1 dilution series); 50 mM Tris-HCl pH 7.4, 0.1% Tween-20; thermophoresis and T-Jump signal; triplicate
T1 construct: Scribble, human, PDZ1, aa 719-829 in pETM-11; The His tag was cleaved only for the NMR samples; nothing is said of cleavage for MST and ITC; also called Scribble PDZ1 wild type; source: E. coli BL21 Gold (DE3), purified (Ni2+ Sepharose)
T1 sequence (Q14160 719-829): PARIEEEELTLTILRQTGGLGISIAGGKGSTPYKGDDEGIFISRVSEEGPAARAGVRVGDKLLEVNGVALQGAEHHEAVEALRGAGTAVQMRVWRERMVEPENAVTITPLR

[2] = target: T2, SHANK1 PDZ (human, aa 652-761) (human, UniProt Q9Y566 652-761); experiment: MST; FITC-labelled peptide fixed at 25-50 nM, untagged SHANK1 PDZ titrated (1:1 dilution series); PBS, 10 mM MgCl2, 0.05% Tween-20; thermophoresis and T-Jump signal; triplicate
T2 construct: Shank1, human, PDZ, aa 652-761 in pETM-33; source: E. coli BL21 Gold (DE3), purified (Ni2+ Sepharose; tag removed with HRV3C protease)
T2 sequence (looked up): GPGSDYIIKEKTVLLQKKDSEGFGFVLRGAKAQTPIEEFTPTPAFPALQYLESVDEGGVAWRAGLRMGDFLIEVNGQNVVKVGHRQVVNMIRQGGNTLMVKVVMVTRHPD

[3] = target: T3, DLG1 PDZ2 (human, aa 311-407) (human, UniProt Q12959 311-407); experiment: MST; FITC-labelled peptide fixed at 25-50 nM, PDZ domain titrated (1:1 dilution series); 50 mM Tris-HCl pH 7.4, 0.1% Tween-20; thermophoresis and T-Jump signal; triplicate
T3 construct: DLG1, human, PDZ2, aa 311-407 in a modified pRSET vector; also called DLG PDZ2; source: E. coli BL21 Gold (DE3), purified (Ni2+ Sepharose)
T3 sequence (Q12959 311-407): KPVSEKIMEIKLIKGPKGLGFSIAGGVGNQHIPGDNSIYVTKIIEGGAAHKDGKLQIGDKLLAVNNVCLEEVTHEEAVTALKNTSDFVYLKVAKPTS

[4] = target: T4, Scribble PDZ1 R762A/A743R (human, UniProt Q14160 719-829, R762A | A743R); experiment: ITC; iTC200, 25°C, 20 mM HEPES pH 7.4; protein 50-100 μM in the cell, peptide 0.64-3 mM in the syringe; single-site fit, stoichiometry fixed to 0.8-1.1; n = 3
T4 construct: human Scribble, PDZ1, aa 719-829, A743R introduced in the background of R762A; also called R762A/A743R mutant; source: E. coli BL21 Gold (DE3), purified (Ni2+ Sepharose), dialysed
T4 sequence (Q14160 719-829 A743R/R762A): as the sequence (Q14160 719-829) above, with A25R, R44A counted along it

[5] = target: T5, DLG1 PDZ2 (human DLG1 PDZ2 aa 311-407) (human, UniProt Q12959 311-407); experiment: MST; FITC-labeled peptide fixed at 25-50 nM, DLG1 PDZ2 titrated (1:1 dilution series); 50 mM Tris-HCl pH 7.4, 0.1% Tween-20; KD from thermophoresis and T-Jump signal; n = 3
T5 construct: Disks large homolog 1 (DLG1), human, second PDZ domain, aa 311-407, in a modified pRSET vector (Chi et al, 2009); removal of the His tag is told only for the NMR sample of Scribble PDZ1 and for SHANK1 PDZ; also called DLG PDZ2; source: E. coli BL21 Gold (DE3), purified (Ni2+ Sepharose), dialyzed into 50 mM Tris-HCl pH 7.4
T5 sequence (Q12959 311-407): as the sequence (Q12959 311-407) above

[6] = target: T6, DLG1 PDZ2 (His-tagged, aa 311-407) (human, UniProt Q12959 311-407); experiment: MST; FITC-labeled peptide fixed at 25-50 nM, protein (Scribble PDZ1 or DLG1 PDZ2) in a 1:1 dilution series; 50 mM Tris-HCl pH 7.4, 0.1% Tween-20; thermophoresis and T-Jump signal; n = 3
T6 construct: human DLG1, PDZ2, aa 311-407, in a modified pRSET vector; also called DLG PDZ2; source: E. coli BL21 Gold (DE3), purified (Ni2+ Sepharose), dialysed
T6 sequence (Q12959 311-407): as above

[7] = target: T7, Scribble PDZ1 (His-tagged, aa 719-829) (human, UniProt Q14160 719-829); experiment: as above
T7 construct: human Scribble, PDZ1, aa 719-829, in pETM-11; Used for MST and ITC; removal of the His tag is told only for the NMR samples; also called Scribble PDZ1 wild type; source: E. coli BL21 Gold (DE3), purified (Ni2+ Sepharose), dialysed
T7 sequence (Q14160 719-829): as the sequence (Q14160 719-829) above

Scribble PDZ1 R801A = target: T8, Scribble PDZ1 R801A (human, UniProt Q14160 719-829, R801A); experiment: ITC; iTC200, 25°C, 20 mM HEPES pH 7.4; protein 50-100 µM in the cell, 0.64-3 mM peptide in the syringe; single-site fit, stoichiometry fixed to 0.8-1.1; triplicate
T8 construct: Scribble, human, PDZ1, aa 719-829 in pETM-11, with R801A (text, methods and primers); source: E. coli BL21 Gold (DE3), purified (Ni2+ Sepharose)
T8 sequence (Q14160 719-829 R801A): as the sequence (Q14160 719-829) above, with R83A counted along it

Scribble PDZ1 K746A = target: T9, Scribble PDZ1 K746A (human, UniProt Q14160 719-829, K746A); experiment: as above
T9 construct: Scribble, human, PDZ1, aa 719-829 in pETM-11, with K746A; source: E. coli BL21 Gold (DE3), purified (Ni2+ Sepharose)
T9 sequence (Q14160 719-829 K746A): as the sequence (Q14160 719-829) above, with K28A counted along it

[8] = target: T10, Scribble PDZ1 R762A/A743R (human, UniProt Q14160 719-829, A743R | R762A); experiment: as above
T10 construct: Scribble, human, PDZ1, aa 719-829 in pETM-11, with R762A and A743R; also called R762A/A743R mutant; source: E. coli BL21 Gold (DE3), purified (Ni2+ Sepharose)
T10 sequence (Q14160 719-829 A743R/R762A): as the sequence (Q14160 719-829) above, with A25R, R44A counted along it

Scribble PDZ1 A743R = target: T11, Scribble PDZ1 A743R (human, UniProt Q14160 719-829, A743R); experiment: as above
T11 construct: Scribble, human, PDZ1, aa 719-829 in pETM-11, with A743R; the text describes A743R only in the R762A background; source: E. coli BL21 Gold (DE3), purified (Ni2+ Sepharose)
T11 sequence (Q14160 719-829 A743R): as the sequence (Q14160 719-829) above, with A25R counted along it

Scribble PDZ1 R762A = target: T12, Scribble PDZ1 R762A (human, UniProt Q14160 719-829, R762A); experiment: as above
T12 construct: Scribble, human, PDZ1, aa 719-829 in pETM-11, with R762A; source: E. coli BL21 Gold (DE3), purified (Ni2+ Sepharose)
T12 sequence (Q14160 719-829 R762A): as the sequence (Q14160 719-829) above, with R44A counted along it

[9] = target: T1, Scribble PDZ1 (human, aa 719-829); experiment: as above
[10] = target: T7, Scribble PDZ1 (His-tagged, aa 719-829); experiment: ITC; iTC200, 25°C, 20 mM HEPES pH 7.4; protein 50-100 μM in the cell, peptide 0.64-3 mM in the syringe; single-site fit, stoichiometry fixed to 0.8-1.1; n = 3

Kd [1]: 0.6 µM
Kd [2]: 47 µM
B1: FITC-HTNETpSL (MCC peptide, p-1 phosphorylated) (peptide)
peptide: {FITC}-HTNET[pS]L
notes: C-terminal seven residues of MCC, human; also called pMCC; source: synthetic peptide, bought: GeneCust

Kd [3]: 6.1 µM
Kd [1]: 101 µM
B2: FITC-KRpSFIESNV (TANC1 peptide, p-6 phosphorylated) (peptide)
peptide: {FITC}-KR[pS]FIESNV
notes: C-terminal nine residues of TANC1, human; also called pTANC1; source: synthetic peptide, bought: GeneCust

binding result [4]: binds
B3: RPHTNETSL (MCC peptide, unphosphorylated, unlabelled) (peptide)
peptide: RPHTNETSL
notes: C-terminal peptide of human MCC; also called unphosphorylated MCC; source: synthetic peptide, bought: GeneCust

binding result [4]: binds
B4: MKRLTSTRL (RPS6KA2 peptide, unphosphorylated, unlabelled) (peptide)
peptide: MKRLTSTRL
notes: C-terminal peptide of human RPS6KA2; also called unphosphorylated RPS6KA2; unphosphorylated ligand; source: synthetic peptide, bought: GeneCust

Kd [5]: 95 µM
B5: FITC-RLTSTRL, unphosphorylated RPS6KA2 peptide (peptide)
peptide: {FITC}-RLTSTRL
notes: C-terminal peptide of human RPS6KA2 (RLTSTRL-coo-); also called RPS6KA2 Unphosphorylated; source: synthetic peptide (GeneCust)

Kd [6]: 6.4 µM
B6: FITC-HTNETSL (MCC peptide, unphosphorylated) (peptide)
peptide: {FITC}-HTNETSL
notes: C-terminal peptide of human MCC (colorectal mutant cancer protein); also called wild-type MCC peptide; source: synthetic peptide, bought: GeneCust

Kd [7]: 0.39 µM
B7: FITC-labeled RPS6KA1 peptide, p-3 phosphorylated (VRKLPpSTTL) (peptide)
peptide: VRKLP[pS]TTL
modifications: also: FITC label, position not given here
notes: C-terminal tail of human RPS6KA1; also called phosphorylated RPS6KA1; source: synthetic peptide (FITC-labeled)

Kd [5]: 6.1 µM
B8: FITC-KRpSFIESNV, p-6 phosphorylated TANC1 peptide (peptide)
peptide: {FITC}-KR[pS]FIESNV
notes: also called TANC1 Phosphorylated; source: synthetic peptide (GeneCust)

Kd [1]: 1.8 µM
Kd [2]: 15 µM
B9: FITC-HTNETSL (MCC peptide, unphosphorylated) (peptide)
peptide: {FITC}-HTNETSL
notes: C-terminal seven residues of MCC, human; source: synthetic peptide, bought: GeneCust

Kd [5]: 2.7 µM
B10: FITC-KRSFIESNV, unphosphorylated TANC1 peptide (peptide)
peptide: {FITC}-KRSFIESNV
notes: also called TANC1 Unphosphorylated; source: synthetic peptide (GeneCust)

Kd [3]: 2.7 µM
Kd [1]: 42 µM
B11: FITC-KRSFIESNV (TANC1 peptide, unphosphorylated) (peptide)
peptide: {FITC}-KRSFIESNV
notes: C-terminal nine residues of TANC1, human; source: synthetic peptide, bought: GeneCust

Kd (Scribble PDZ1 R801A): 17 µM
Kd (Scribble PDZ1 K746A): 10 µM
Kd [8]: 15 µM
Kd (Scribble PDZ1 A743R): 2.8 µM
Kd (Scribble PDZ1 R762A): 25 µM
Kd [9]: 4 µM
B12: RPS6KA2 peptide MKRLTpSTRL (p-3 phosphorylated) (peptide)
peptide: MKRLT[pS]TRL
notes: C-terminal nine residues of RPS6KA2, human; also called pRPS6KA2; phospho-RPS6KA2; source: synthetic peptide, bought: GeneCust

Kd [3]: 95 µM
Kd [1]: 8.9 µM
Kd [2]: 4.5 µM
B13: FITC-RLTSTRL (RPS6KA2 peptide, unphosphorylated) (peptide)
peptide: {FITC}-RLTSTRL
notes: C-terminal seven residues of RPS6KA2, human; source: synthetic peptide, bought: GeneCust

Kd [7]: 1 µM
B14: FITC-labeled RPS6KA1 peptide, unphosphorylated (VRKLPSTTL) (peptide)
peptide: VRKLPSTTL
modifications: also: FITC label, position not given here
notes: C-terminal tail of human RPS6KA1; also called unphosphorylated RPS6KA1 peptide; source: synthetic peptide (FITC-labeled)

Kd [3]: 14 µM
Kd [1]: 0.7 µM
Kd [2]: 62 µM
B15: FITC-RLTETRL (RPS6KA2 peptide, phosphomimetic at p-3) (peptide)
peptide: {FITC}-RLTETRL
notes: C-terminal seven residues of RPS6KA2, human, with S730E; also called Mimetic RPS6KA2; source: synthetic peptide, bought: GeneCust

Kd (Scribble PDZ1 R801A): 28 µM
Kd (Scribble PDZ1 K746A): 10 µM
Kd [8]: 60 µM
Kd (Scribble PDZ1 A743R): 15 µM
Kd (Scribble PDZ1 R762A): 9.7 µM
Kd [9]: 18 µM
B16: RPS6KA2 peptide MKRLTSTRL (unphosphorylated) (peptide)
peptide: MKRLTSTRL
notes: C-terminal nine residues of RPS6KA2, human; source: synthetic peptide, bought: GeneCust

Kd [5]: 72 µM
B17: FITC-RLTpSTRL, p-3 phosphorylated RPS6KA2 peptide (peptide)
peptide: {FITC}-RLT[pS]TRL
notes: also called RPS6KA2 Phosphorylated; source: synthetic peptide (GeneCust)

Kd [6]: 57 µM
B18: FITC-HTNETpSL (MCC peptide, phosphorylated at p-1) (peptide)
peptide: {FITC}-HTNET[pS]L
notes: C-terminal peptide of human MCC; also called pMCC; source: synthetic peptide, bought: GeneCust

Kd [8]: 14 µM
Kd (Scribble PDZ1 R762A): 25 µM
Kd [9]: 2.6 µM
B19: MCC peptide RPHTNETpSL (p-1 phosphorylated) (peptide)
peptide: RPHTNET[pS]L
notes: C-terminal nine residues of MCC (colorectal mutant cancer protein), human; also called pMCC; source: synthetic peptide, bought: GeneCust

Kd [3]: 5.1 µM
Kd [1]: 52 µM
B20: FITC-KREFIESNV (TANC1 peptide, phosphomimetic at p-6) (peptide)
peptide: {FITC}-KREFIESNV
notes: also called Mimetic TANC1; source: synthetic peptide, bought: GeneCust

Kd [3]: 72 µM
Kd [1]: 1.7 µM
Kd [2]: 16 µM
B21: FITC-RLTpSTRL (RPS6KA2 peptide, p-3 phosphorylated) (peptide)
peptide: {FITC}-RLT[pS]TRL
notes: C-terminal seven residues of RPS6KA2, human; the methods give pS at this position; also called pRPS6KA2; source: synthetic peptide, bought: GeneCust

fold lower KD than for the unphosphorylated peptide [10]: 2 fold
binding result [4]: binds
B22: RPHTNETpSL (MCC peptide, phosphorylated at p-1, unlabelled) (peptide)
peptide: RPHTNET[pS]L
notes: C-terminal peptide of human MCC; also called phosphorylated MCC; source: synthetic peptide, bought: GeneCust

Kd [8]: 5.8 µM
Kd (Scribble PDZ1 R762A): 11.3 µM
Kd [9]: 4.4 µM
B23: MCC peptide RPHTNETSL (unphosphorylated) (peptide)
peptide: RPHTNETSL
notes: C-terminal nine residues of MCC (colorectal mutant cancer protein), human; source: synthetic peptide, bought: GeneCust

Kd [5]: 14 µM
B24: FITC-RLTETRL, phosphomimetic (p-3) RPS6KA2 peptide (peptide)
peptide: {FITC}-RLTETRL
notes: also called RPS6KA2 Mimetic; source: synthetic peptide (GeneCust)

Kd [3]: 21 µM
Kd [1]: 1.1 µM
Kd [2]: 52 µM
B25: FITC-HTNETEL (MCC peptide, phosphomimetic at p-1) (peptide)
peptide: {FITC}-HTNETEL
notes: also called Mimetic MCC; source: synthetic peptide, bought: GeneCust
